T1: CD137 peptide P1 (CRD1)-human Fc fusion protein (human, UniProt Q07011 25-68)
T1 construct: Made in Expi293F cells and used as conditioned medium, captured on anti-hIgG Fc biosensors; not shown: human Fc tag at the C-terminus
T1 chain: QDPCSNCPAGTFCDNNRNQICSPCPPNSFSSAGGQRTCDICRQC

T2: human CD9, full-length, expressed on cells (human, UniProt P21926 2-228)
T2 construct: also called Tetraspanin-29
T2 sequence: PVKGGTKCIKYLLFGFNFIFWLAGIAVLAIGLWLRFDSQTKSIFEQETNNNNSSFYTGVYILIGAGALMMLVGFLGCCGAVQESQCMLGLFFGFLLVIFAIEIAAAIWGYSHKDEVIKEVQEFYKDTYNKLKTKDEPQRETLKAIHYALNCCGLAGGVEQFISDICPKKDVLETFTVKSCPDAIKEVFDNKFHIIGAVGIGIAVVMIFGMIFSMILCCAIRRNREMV


Legend:
[1] = biological target: T1, CD137 peptide P1 (CRD1)-human Fc fusion …; assay: BLI (Octet RED384), CD137 CRD peptide-Fc on AHC biosensors, Fab-Y at 10 µg/mL; CRD inferred from the peptide binding profile
Experimental: DNA sequences coding for each peptide (as shown in Table 7) were ordered from Twist Bioscience in a mammalian expression vector with a human Fc tag at the C-terminus. Each plasmid was used to transfect Expi293F™ cells (Gibcon™) to generate the different peptide-human Fc fusion proteins. For transfections, 850 μl of Expi293F™ cells ([…]) were plated in 48-well blocks and transfected with 3 μg of DNA using the ExpiFectamine™ 293 Transfection Kit (ThermoFisher) following the manufacturer's instructions. Cells were incubated in a 37° C., 5% CO₂ environment with shaking at 225 rpm. After 6 days, cells were pelleted (1000×g, 10 min) and the conditioned medias containing each of the peptides were harvested, quantitated and diluted to 1.7 μg/mL in Expi293™ Expression Medium (ThermoFisher). The conditioned medias were used for binding assessment to our panel of antibodies using the Octet® RED384 System (FortéBio) at room temperature with anti-hIgG Fc Capture (AHC) Biosensors (FortéBio). Firstly, an array of 8 sensors was dipped in kinetics buffer (PBS, 0.1% BSA, 0.02% Tween 20) for 180 seconds to provide a baseline signal. […]

[2] = biological target: T2, human CD9, full-length, expressed on …; assay: binding to cells expressing full-length CD9 (selection; method not described)

| binding result [1] | binding result [2] | Binder |
| --- | --- | --- |
| binds | – | anti-CD137 Fab-Y 8475 (Fab, V domains shown, Tested as Fab-Y: a Fab whose CH1 is joined by a peptide linker to the GCN4 peptide (clone 7P14P); also called VR8475) VH: QSVEESGGRLVTPGTPLTLTCTVSGFSLSTYAMSWVRQAPGKGLEWIGAIWSGGTTDYTSWAKGRFTISKASTTVDLKITSPTTEDTATYFCVRMAVIFNAYTFDSWGPGTLVTVSS VL: AYDMTQTPSSVSAAVGGTVTIKCQASQNIYSYLAWYQQKPGQRPKLLIYGASTLASGVPSRFKGSGSGTDFTLTISDLECDDAATYYCQQGHSSGNVGNNVFGGGTEVVVK |
| – | binds | anti-CD9 Fab-Y 7272 (Fab, V domains shown, Tested as Fab-Y: a Fab whose CH1 is joined by a peptide linker to the GCN4 peptide (clone 7P14P); also called VR7272) VH: QSLEESGGRLVTPGTPLTLTCTVSGFSLSSYAMGWVRQAPGKGLEWIGAIGSITATGYARWAKGRFSISKTSTTVDLKMTSPTTEDTATYFCAREIYVGSAYAFDIWGPGTLVTVSS VL: AYDMTQTPASVEVAVGDTVTIKCQASQSISNYLAWYQQKPGQPPKLLIYLASTLASGVPSRFKGSGSGTEFTLTISDLECADAATYYCQQGYIDNVNKGFGGGTEVVVK |

— patent publication US20230151108A1 (UCB, published 2023)
